Assay in all cases: BLI
Test [1] has as its target double-mutant TPX2 (DM-TPX2) (Xenopus laevis) (UniProt Q6NUF4).
In test [2] the target is TPX2 aa1-178Δ123 (TPX2 1-178 with the KKLK motif mutated) (Xenopus laevis) (UniProt Q6NUF4).
Test [3] addresses triple-mutant TPX2 (TM-TPX2) (Xenopus laevis) (UniProt Q6NUF4).
Test [4] has as its target TPX2 C-terminus (a.a. 480-716) (Xenopus laevis) (UniProt Q6NUF4).

A value given as a limit tells only on which side of the number the result lay.

importin-αΔIBB (importin-α without the importin-β binding domain) (domain or fragment), sequence (P52170 71-522, stated change not applied): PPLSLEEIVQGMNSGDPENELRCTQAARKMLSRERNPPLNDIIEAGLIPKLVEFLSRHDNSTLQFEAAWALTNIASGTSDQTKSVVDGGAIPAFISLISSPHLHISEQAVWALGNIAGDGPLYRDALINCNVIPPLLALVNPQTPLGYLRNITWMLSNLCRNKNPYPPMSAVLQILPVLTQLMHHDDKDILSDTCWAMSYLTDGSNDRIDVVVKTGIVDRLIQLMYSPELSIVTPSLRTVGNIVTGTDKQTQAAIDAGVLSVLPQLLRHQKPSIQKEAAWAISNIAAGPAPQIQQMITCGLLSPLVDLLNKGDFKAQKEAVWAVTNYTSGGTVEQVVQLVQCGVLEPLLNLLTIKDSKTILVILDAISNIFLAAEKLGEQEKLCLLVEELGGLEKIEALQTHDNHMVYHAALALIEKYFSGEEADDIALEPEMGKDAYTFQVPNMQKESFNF
importin-β, sequence (P52297 whole entry): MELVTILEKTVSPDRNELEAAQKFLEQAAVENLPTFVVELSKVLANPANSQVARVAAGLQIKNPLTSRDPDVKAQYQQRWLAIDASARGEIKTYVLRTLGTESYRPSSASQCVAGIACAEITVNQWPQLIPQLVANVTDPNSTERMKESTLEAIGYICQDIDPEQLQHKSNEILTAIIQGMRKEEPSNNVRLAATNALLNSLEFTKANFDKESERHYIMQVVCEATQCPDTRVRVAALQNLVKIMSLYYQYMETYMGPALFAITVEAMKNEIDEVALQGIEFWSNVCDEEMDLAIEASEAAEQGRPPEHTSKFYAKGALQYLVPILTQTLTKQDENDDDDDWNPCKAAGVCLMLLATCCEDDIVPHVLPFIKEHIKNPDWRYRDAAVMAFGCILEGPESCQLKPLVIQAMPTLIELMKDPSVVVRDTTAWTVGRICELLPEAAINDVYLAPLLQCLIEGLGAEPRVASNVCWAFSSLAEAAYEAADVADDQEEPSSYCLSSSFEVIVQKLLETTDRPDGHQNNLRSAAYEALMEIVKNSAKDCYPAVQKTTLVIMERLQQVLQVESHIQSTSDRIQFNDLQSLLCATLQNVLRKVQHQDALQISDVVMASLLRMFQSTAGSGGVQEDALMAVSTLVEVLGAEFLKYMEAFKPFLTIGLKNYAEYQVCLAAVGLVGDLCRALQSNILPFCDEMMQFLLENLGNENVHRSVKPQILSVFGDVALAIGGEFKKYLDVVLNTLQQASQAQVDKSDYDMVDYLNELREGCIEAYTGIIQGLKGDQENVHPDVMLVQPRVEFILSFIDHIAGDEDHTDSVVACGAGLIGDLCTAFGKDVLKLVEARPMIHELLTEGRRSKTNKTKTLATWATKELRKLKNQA
TPX2 C-terminus (a.a. 480-716) (Xenopus laevis), sequence (Q6NUF4 480-716): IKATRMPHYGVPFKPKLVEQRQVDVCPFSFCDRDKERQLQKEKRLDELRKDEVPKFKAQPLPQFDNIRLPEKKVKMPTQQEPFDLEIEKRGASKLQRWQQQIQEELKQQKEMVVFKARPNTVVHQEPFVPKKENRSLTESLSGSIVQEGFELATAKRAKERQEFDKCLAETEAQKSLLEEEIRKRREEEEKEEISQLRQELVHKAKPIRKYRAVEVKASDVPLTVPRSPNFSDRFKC

Regarding “importin-αΔIBB (importin-α without the importin-β binding domain) (domain or fragment)”, the Kd in test [1] turned out to be 45 nM; in test [3] it was 410 nM. The substance further came in with a fold loss of binding against the wild type 1-178 TPX2 construct in test [2] of 10 fold.
The substance “importin-β (from UniProt P52297 1-876) (natural protein)” yielded a Kd in test [4] of more than 4000 nM.

For the origin of these results see publication doi:10.1101/2020.09.01.276469.
